In data set [1] the target is DNA polymerase beta WT (UniProt P06746 1-335). Description: active site titration.
Data set [2] addresses DNA polymerase beta D160N (UniProt P06746 1-335, D160N). Description: active site titration.

B1: 1 bp-gap (dsDNA)
DNA 1: CGCGCCAATCGAGCCATGTCGT
DNA 2: GTCAACGACCCACCATTCAAGA
DNA 3: TCTTGAATGGTGGGTCGTTGACGACGACATGGCTCGATTGGCGCG
Turning to B1, the Kd (in general, the concentration at which binding is half-saturated) in data set [1] was 16 nM; in data set [2], 21 nM.

For the origin of these results see PMC3624760.
